The source of these data is US20230174619A1 (published 2023).

Some results are limits rather than exact numbers.

In experiment [1] the target is T1, murine PD-1-Fc (murine, UniProt Q02242 25-167).
T1 construct: Surface-immobilized in the BLI assay; It differs from the selection antigen (murine PD-1 31-150, C83S, AviTag); also called murine PD-iFc; not shown: Fc portion
T1 sequence (looked up): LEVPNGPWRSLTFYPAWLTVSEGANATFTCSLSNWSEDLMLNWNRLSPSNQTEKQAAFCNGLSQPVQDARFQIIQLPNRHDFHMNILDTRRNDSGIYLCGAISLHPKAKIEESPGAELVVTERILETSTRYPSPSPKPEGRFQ
In words: bio-layer interferometry (Octet), murine PD-1-Fc surface-immobilized, His-tagged PD-L1 domain. How it is done:
Amino acids are indicated and shown as sticks. (B) Structural alignment indicates an identical structural conformation. (C)-(E) Representative bio-layer interferometry sensograms for PD-L1 wt (C) and two indicated engineered PD-L1 variants (D, E). Raw data (thick lines) was fitted using 1:1 langmuir interaction model (thin lines).
(§1) Phage selections were performed using as an antigen recombinant murine PD-1 protein (amino acids 31-150) with C83S substitution fused to AviTag peptide, biotinylated in vivo and purified from E. coli. After a couple of selection rounds, binding of enriched phage clones were analyzed by ELISA and the selected PD-L1 variants were sequenced. In a competitive phage IC₅₀ ELISA, the 5 PD-L1 variants were examined for their binding properties by competing with 500 nM or 50 nM in solution with PD-1-Fc (FIG. 1).
Amino acid positions 54, 56, 63, 66, 68, 69, 76, 113, 115, and 121-125 were randomized. For the selected variants, dashes represent no amino acid change relative to the wild type sequence. Kd values for the interaction of the variants and murine PD-1 were obtained by bio-layer interferometry; n/a—not available. Table 2 indicates R113 because the original C113 of the murine sequence was substituted already prior to library construction, as indicated above.
(In general: BLI is a label-free optical method that tracks binding on a fibre tip over time.)

In experiment [2] the target is T1, murine PD-1-Fc. Put plainly: bio-layer interferometry 'in similar experiments', dimeric Fc fusion (avidity). The protocol:
as §1
(§2) After expression and purification of the Fc fusion proteins, we obtained with one step purification on a protein A column, good purity and an average yield of 200 mg/L Expi293F culture (FIG. 4). In order to verify whether the purified protein is still binding the PD-1, we determined PD-1/PD-L1 affinities as before.

The target in experiment [3] is T1, murine PD-1-Fc. In words: bio-layer interferometry (Octet), murine PD-1-Fc surface-immobilized; reference PD-L1 wt in the same format.
The target of experiment [4] is T1, murine PD-1-Fc. In words: bio-layer interferometry, monomeric variant 258 as retold in the text (Table 1 prints 2.17).
The target of experiment [5] is T1, murine PD-1-Fc. Put plainly: bio-layer interferometry, Fc fusions; reference wt Fc fusion.
In experiment [6] the target is T1, murine PD-1-Fc. Put plainly: bio-layer interferometry 'as before', dimeric Fc fusion (avidity). How it is done: as §1, §2

B1: PD-L1 wt, distal Ig-like domain of murine PD-L1 (amino acids 18-132) with C113R, His-tag fusion expressed in E. coli (ligand)
chain: AFTITAPKDLYVVEYGSNVTMECRFPVERELDLLALVVYWEKEDEQVIQFVAGEEDLKPQHSNFRGRASLPKDQLLKGNAALQITDVKLQDAGVYRCIISYGGADYKRITLKVNA
notes: also called unmodified PD-L1 wt; wt PD-L1; not shown: His-tag
B1: the Kd with murine PD-1-Fc [1] came to 66 nM.

B2: PD-L1 wt Fc fusion protein (Ig-like V-type domain of PD-L1 fused to human Fc), expressed in Expi293F (Fc fusion)
chain: AFTITAPKDLYVVEYGSNVTMECRFPVERELDLLALVVYWEKEDEQVIQFVAGEEDLKPQHSNFRGRASLPKDQLLKGNAALQITDVKLQDAGVYRCIISYGGADYKRITLKVNA
notes: also called wt (200); wt protein; not shown: linker/hinge and human Fc
In the experiment with murine PD-1-Fc [2], B2 registered a Kd of roughly 0.6 nM.

B3: PD-L1 variant 258, distal Ig-like domain of murine PD-L1 (amino acids 18-132), His-tag fusion expressed in E. coli (ligand)
chain: AFTITAPKDLYVVEYGSNVTMECRFPVERELDLLALVVSWEKEDEQVIQFVAGEEDLKFQHSNFRGRASLPKDQLLKGNAALQITDVKLQDAGVYRCLISYGGADYKRITLKVNA
notes: not shown: His-tag
B3: the “fold advantage in binding compared to PD-L1 wt” value with murine PD-1-Fc [3] was no more than 30 fold. Also, the Kd in the experiment with murine PD-1-Fc [1] worked out at 2.17 nM; with murine PD-1-Fc [4], 2.14 nM.

B4: PD-L1 variant 214 Fc fusion protein (Ig-like V-type domain fused to human Fc), expressed in Expi293F (Fc fusion)
chain: AFTITAPKDLYVVEYGSNVTMECRFPVERELDLLALLVDWEKEDEQVIRFESGEEDLKHQHSNFRGRASLPKDQLLKGNAALQITDVKLQDAGVYRCIISYGGADYKRITLKVNA
notes: not shown: linker/hinge and human Fc
Consider B4, for which the “fold improved affinity against the wt Fc fusion” value with murine PD-1-Fc [5] was no more than 8 fold. Further, the Kd with murine PD-1-Fc [6] came to 0.088 nM.

B5: PD-L1 variant 258 Fc fusion protein (Ig-like V-type domain fused to human Fc), expressed in Expi293F (Fc fusion)
chain: AFTITAPKDLYVVEYGSNVTMECRFPVERELDLLALVVSWEKEDEQVIQFVAGEEDLKFQHSNFRGRASLPKDQLLKGNAALQITDVKLQDAGVYRCLISYGGADYKRITLKVNA
notes: as for B4
Consider B5, for which the “fold improved affinity against the wt Fc fusion” value with murine PD-1-Fc [5] was no more than 8 fold. The same molecule displayed a Kd in the experiment with murine PD-1-Fc [6] of 0.077 nM.

B6: PD-L1 variant 214, distal Ig-like domain of murine PD-L1 (amino acids 18-132), His-tag fusion expressed in E. coli (ligand)
chain: AFTITAPKDLYVVEYGSNVTMECRFPVERELDLLALLVDWEKEDEQVIRFESGEEDLKHQHSNFRGRASLPKDQLLKGNAALQITDVKLQDAGVYRCIISYGGADYKRITLKVNA
notes: not shown: His-tag
For B6, in the experiment with murine PD-1-Fc [3], the “fold advantage in binding compared to PD-L1 wt” value was no more than 30 fold. In the experiment with murine PD-1-Fc [1], this molecule had a Kd of 2.54 nM.
